In article doi:10.1101/842088:
Read-outs that look alike come from different tables or passages of the source.

How the values were obtained:
Experiment in all cases: fluorescence polarization
NS3h WT (T7 Shuffle) [1] = target: T1, NS3h WT (T7 Shuffle) (dengue virus 4, UniProt P09866 1646-2092)
NS3h WT = NS3h WT (dengue virus 4, UniProt P09866 1646-2092)
NS3h WT (T7 Shuffle) [2] = target: T1, NS3h WT (T7 Shuffle); remark: listed apart in the source

T1 sequence (P09866 1646-2092): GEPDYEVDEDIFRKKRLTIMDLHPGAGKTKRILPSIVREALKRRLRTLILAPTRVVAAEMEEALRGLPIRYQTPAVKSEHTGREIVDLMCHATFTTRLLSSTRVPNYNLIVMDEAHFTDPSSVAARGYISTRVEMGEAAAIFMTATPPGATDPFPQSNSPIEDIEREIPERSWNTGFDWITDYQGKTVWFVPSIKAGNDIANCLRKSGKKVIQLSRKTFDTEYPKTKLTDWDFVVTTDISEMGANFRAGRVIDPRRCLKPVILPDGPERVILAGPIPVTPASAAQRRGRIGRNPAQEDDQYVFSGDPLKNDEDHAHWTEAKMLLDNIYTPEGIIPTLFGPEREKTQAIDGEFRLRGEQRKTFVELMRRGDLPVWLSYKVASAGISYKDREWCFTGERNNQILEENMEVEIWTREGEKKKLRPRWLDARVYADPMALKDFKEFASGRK
Chain of NS3h WT (P09866 1646-2092): as above

AGUAA (ssRNA, 5'-diphosphate (pp (so in the source))) [ppAGUAA Alexa-488 RNA oligo]
Kd (NS3h WT (T7 Shuffle) [1]): 3.4 ± 1.4 µM | Kd (NS3h WT): 1.9 ± 0.8 µM | Kd (NS3h WT (T7 Shuffle) [2]): 4.5 ± 1.5 µM
